Measured values as given in patent US20220348610A1 (published 2022).
Numbered stars: 1 amine (or outer) side, 2 acyl side, 3 side chain; on linkers, the order of the positions; unused ones are H or OH. Bridge positions count the residues as written; N and C are the ends. Square brackets hold non-standard residues; d marks the D form. Tyr(OMe) = O-methyl-Tyr (4-methoxyphenylalanine), COc1ccc(C[C@H](N[*:1])C(=O)[*:2])cc1; Trp(5-F) = N[C@@H](Cc1c[nH]c2ccc(F)cc12)C(=O)O; mXylylene = c1cc(C[*:1])cc(C[*:2])c1; AlexaFluor 647 = AlexaFluor 647 dye; αMeP = C[C@@]1(C(=O)O)CCCN1; Mpa = O=C(O)CCS

How the values were obtained:
[1] = molecular target: T1, biotinylated PCSK9 (UniProt Q8NBP7 31-692, limits assumed, biotinylated (site not stated)); test: Alexa FRET Standard assay
T1 sequence (Q8NBP7 31-692 limits assumed): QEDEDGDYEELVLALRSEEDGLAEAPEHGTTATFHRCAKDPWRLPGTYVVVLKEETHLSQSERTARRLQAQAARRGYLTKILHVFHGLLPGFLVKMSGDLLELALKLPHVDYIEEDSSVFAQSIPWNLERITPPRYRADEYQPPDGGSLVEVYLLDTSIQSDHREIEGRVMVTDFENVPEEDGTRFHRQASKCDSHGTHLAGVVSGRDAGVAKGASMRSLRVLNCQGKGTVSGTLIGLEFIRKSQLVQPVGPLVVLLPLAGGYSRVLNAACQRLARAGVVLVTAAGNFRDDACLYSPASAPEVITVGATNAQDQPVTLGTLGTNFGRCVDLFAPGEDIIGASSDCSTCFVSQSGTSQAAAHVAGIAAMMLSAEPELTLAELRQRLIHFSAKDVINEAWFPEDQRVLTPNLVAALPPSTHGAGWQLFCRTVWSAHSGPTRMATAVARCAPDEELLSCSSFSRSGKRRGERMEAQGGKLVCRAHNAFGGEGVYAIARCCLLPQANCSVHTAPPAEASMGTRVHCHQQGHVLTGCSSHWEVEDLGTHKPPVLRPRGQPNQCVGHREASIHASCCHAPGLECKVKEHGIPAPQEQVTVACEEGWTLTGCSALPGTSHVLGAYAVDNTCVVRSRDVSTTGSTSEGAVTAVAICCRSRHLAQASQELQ
Experimental: A solution containing 1 nM biotinylated PCSK9+2.5 nM Lance Streptavidin Europium (Strep-Eu) was made in 50 mM HEPES pH 7.4, 0.15 M NaCl, 5 mM CaCl₂), 0.01% BSA, and 0.01% Surfactant P20. A separate solution containing 40 nM of the AlexaFluor tagged cyclic peptide was made in the same buffer system. An Echo was used to transfer 0.750 ul of compound to an assay plate followed by the addition of 15 ul of PCSK9+Stept-Eu and 15 ul of AF peptide. The final assay volume was 30.750 ul containing 0.5 nM PCSK9, 1.25 nM Strep-Eu, and 20 nM AF cyclic peptide. The reaction was incubated at room temperature for at least two hours prior to fluorescence measurements using an Envision Multilabel Reader. IC₅₀ values were determined by fitting data to a sigmoidal dose-response curve using nonlinear regression. Kᵢ was then calculated from the IC₅₀ and the KD of AF cyclic peptide. Counts (B-counts) of the europium-labeled PCSK9 were followed to observe if compounds were […]. A fall off of the B-counts likely indicated a false positive of inhibition. Data from this procedure was reported as “A=‘numerical value’ (nanomolar)”

[2] = molecular target: T1, biotinylated PCSK9; test: Alexa FRET Plus assay
Experimental: A solution containing 1 nM biotinylated PCSK9+2.5 nM Lance Streptavidin Europium (Strep-Eu) was made in 50 mM HEPES pH 7.4, 0.15 M NaCl, 5 mM CaCl₂), 0.01% BSA, and 0.01% Surfactant P20. A separate solution containing 1920 nM of the AlexaFluor tagged cyclic peptide was made in the same buffer system. An Echo was used to transfer 0.075 ul of compound plus 0.675 ul of DMSO to each well of an assay plate followed by the addition of 15 ul of PCSK9+Stept-Eu and 15 ul of AF peptide. The final assay volume was 30.750 ul containing 0.5 nM PCSK9, 1.25 nM Strep-Eu, and 960 nM AF cyclic peptide. The reaction was incubated at room temperature for at least two hours prior to fluorescence measurements using an Envision Multilabel Reader. IC₅₀ values were determined by fitting data to a sigmoidal dose-response curve using nonlinear regression. Kᵢ was then calculated from the IC₅₀ and the KD of AF cyclic peptide. Counts (B-counts) of the europium-labeled PCSK9 were followed to observe if compounds were adversely affecting PCSK9. A fall off of the B-counts likely indicated a false positive of inhibition. Data from this procedure was reported as “P=‘numerical value’ (nanomolar)”

Kd [1] [nM]	Kd [2] [nM]	Binder
83	–	[Mpa]K(AlexaFluor 647)G[Trp(5-F)][Trp(5-F)]DHY[αMeP]C-NH2 (linker N-10 via mXylylene; not fully specified, also called AlexaFluor647 (AF) tagged cyclic peptide; AF cyclic peptide) [Reagent A]
–	35	[Mpa]K(AlexaFluor 647)[dA][Trp(5-F)][Trp(5-F)]DH[Tyr(OMe)][αMeP]C-NH2 (linker N-10 via mXylylene; not fully specified, also called AlexaFluor647 (AF) tagged cyclic peptide; AF cyclic peptide) [Reagent B]
